Consider two molecules from US20210373004A1 (BIOASTER, published 2021).

Test [1] addresses T1, Flag-mCherry-ColAP41-Cys-6His (Pseudomonas aeruginosa AP41). Put plainly: EIA 8 plex n° 1: colicin coated at 100 nM, Im-RLuc8 alone at 100 nM, luciferase signal (FIG. 3, light grey bars).
Test [2] addresses Flag-mCherry-ColKhan-Cys-6His (Photorhabdus khanii). Put plainly: EIA 8 plex n° 2: colicin coated at 100 nM, Im-RLuc8 at 100 nM, luminescence; light bar alone, dark bar with the 7 other unfused Im proteins.
Test [3] addresses Flag-mCherry-ColLeaf-Cys-6His (Pseudomonas sp Leaf83). The description is as above.
For another test, the target named is T2, Flag-mCherry-ColE9-6His (Escherichia coli).
T2 construct: also called Colicin E9
Put plainly: EIA 8 plex n° 1: colicin coated at 100 nM, Im-RLuc8 at 100 nM, luminescence; light bar alone, dark bar with the 7 other unfused Im proteins.

For test [4], the target named is T3, Flag-mCherry-ColSyr-Cys-6His (Pseudomonas syringae B728A). Described as above.
Test [5] addresses T4, Flag-EmGFP-ColE7-6His (Escherichia coli).
T4 construct: also called Colicin E7
The description is as above.

The target of test [6] is Flag-mCherry-ColErw-Cys-6His (Pectobacterium carotovorum). Described as above.
The next test has as its target T5, Flag-mCherry-ColE8-6His (Escherichia coli).
T5 construct: also called Colicin E8
The test is described as above.

A further test concerns the target T6, Flag-EmGFP-ColE2-6His (Escherichia coli).
T6 construct: Coated on the plate or sprayed on the membrane; also called Colicin E2
Described as above.

Test [7] concerns the target T1, Flag-mCherry-ColAP41-Cys-6His. Put plainly: EIA 8 plex n° 2: colicin coated at 100 nM, Im-RLuc8 alone at 100 nM, luciferase signal (FIG. 4, light grey bars).
Test [8] addresses T3, Flag-mCherry-ColSyr-Cys-6His. Put plainly: EIA 8 plex n° 1: colicin coated at 100 nM, Im-RLuc8 alone at 100 nM, luciferase signal (FIG. 3, light grey bars).
Test [9] addresses T4, Flag-EmGFP-ColE7-6His. Put plainly: EIA 8 plex n° 1: colicin coated at 100 nM, Im-RLuc8 alone at 100 nM, luciferase signal.
The target in test [10] is T3, Flag-mCherry-ColSyr-Cys-6His. Put plainly: EIA 8 plex n° 2: colicin coated at 100 nM, Im-RLuc8 alone at 100 nM, luciferase signal (FIG. 4, light grey bars).

Some results are limits rather than exact numbers.

B1: Myc-RLuc8-ImAP41-Avitag-6His (other)
chain: MGGEQKLISEEDLGGSASKVYDPEQRKRMITGPQWWARCKQMNVLDSFINYYDSEKHAENAVIFLHGNATSSYLWRHVVPHIEPVARCIIPDLIGMGKSGKSGNGSYRLLDHYKYLTAWFELLNLPKKIIFVGHDWGAALAFHYAYEHQDRIKAIVHMESVVDVIESWDEWPDIEEDIALIKSEEGEKMVLENNFFVETVLPSKIMRKLEPEEFAAYLEPFKEKGEVRRPTLSWPREIPLVKGGKPDVVQIVRNYNAYLRASDDLPKLFIESDPGFFSNAIVEGAKKFPNTEFVKVKGLHFLQEDAPDEMGKYIKSFVERVLKNEQKLPGGSDIKNNLSDYTESEFLEIIEEFFKNKSGLKGSELEKRMDKLVKHFEEVTSHPRKSGVIFHPKPGFETPEGIVKEVKEWRAANGLPGFKAGLEGGSGGSGLNDIFEAQKIEWHELEGGGSHHHHHH
notes: Immunity protein fused to the luciferase RLuc8 as reporter; added in solution; also called ImAP41-Rluc8
As for B1, the RLU is more than 2e+06 RLU in [1] and more than 2.4e+06 RLU in test [7]. Also, the binding result (in test [2]; in test [3]; with Flag-mCherry-ColE9-6His; in [4]; with Flag-EmGFP-ColE7-6His [5]; in test [6]) was “no binding (tested: 100 nM)” throughout. Further, the binding result with Flag-mCherry-ColE8-6His and with Flag-EmGFP-ColE2-6His was “no binding (tested: 100 nM)” each time.

B2: Myc-RLuc8-ImSyr-Avitag-6His (other)
chain: MGGEQKLISEEDLGGSASKVYDPEQRKRMITGPQWWARCKQMNVLDSFINYYDSEKHAENAVIFLHGNATSSYLWRHVVPHIEPVARCIIPDLIGMGKSGKSGNGSYRLLDHYKYLTAWFELLNLPKKIIFVGHDWGAALAFHYAYEHQDRIKAIVHMESVVDVIESWDEWPDIEEDIALIKSEEGEKMVLENNFFVETVLPSKIMRKLEPEEFAAYLEPFKEKGEVRRPTLSWPREIPLVKGGKPDVVQIVRNYNAYLRASDDLPKLFIESDPGFFSNAIVEGAKKFPNTEFVKVKGLHFLQEDAPDEMGKYIKSFVERVLKNEQKLPGGSIFKEKIEDYTEEEFLEFLKGLSSEYSQLHGDEFIKHMDRSVEHFVKITEHPAQTDVIFYPEEGQEDTPEGILKVIKEWRAKNGKPGFKSGGSGGSGLNDIFEAQKIEWHELEGGGSHHHHHH
notes: Immunity protein fused to the luciferase RLuc8 as reporter; added in solution; also called ImSyr-Rluc8
For the molecule B2, the RLU was more than 2e+06 RLU in test [8], more than 100000 RLU in the test with Flag-EmGFP-ColE7-6His [9] and more than 2.4e+06 RLU in test [10]. The binding result (in test [2]; in test [3]; with Flag-mCherry-ColE9-6His; in test [6]; with Flag-mCherry-ColE8-6His; with Flag-EmGFP-ColE2-6His) was “no binding (tested: 100 nM)” throughout.
